Measured values from PMC4426631, “Insect antimicrobial peptides show potentiating functional interactions against Gram-negative bacteria” (Proceedings of the Royal Society B: Biological Sciences, 2015).
Cf = 5(6)-carboxyfluorescein

Target: T1, DnaK–BHQ10 (E. coli chaperone DnaK labelled with Black Hole Quencher 10) (E. coli, UniProt P0A6Y8 1-638, BHQ10 (from BHQ10-NHS-ester), labelling ratio 1 : 9 DnaK : BHQ10)
T1 construct: chaperone DnaK of Escherichia coli; also called bacterial DnaK; quencher-labelled bacterial DnaK probe; source: produced by Michael Zahn [50]; dialysed and labelled with BHQ10-NHS-ester
Assay: FRET or BRET; FRET-based quenching assay in solution: fluorescein-modified peptide (50 μl, 1.3 nmol/l) mixed with a serial dilution of DnaK–BHQ10 (50 μl, 0.8–13 000 nmol/l, 1 : 4 series) in modifying buffer (20 mmol/l Na2HPO4, 20 mmol/l KH2PO4, 5 mmol/l MgCl2, 150 mmol/l KCl, pH 7.4), black 384-well plate, 2 h; Kd by non-linear regression (dose-response logistical function, SlideWrite) of quenching against DnaK …
Conditions: both partners purified

T1 sequence (P0A6Y8 whole entry): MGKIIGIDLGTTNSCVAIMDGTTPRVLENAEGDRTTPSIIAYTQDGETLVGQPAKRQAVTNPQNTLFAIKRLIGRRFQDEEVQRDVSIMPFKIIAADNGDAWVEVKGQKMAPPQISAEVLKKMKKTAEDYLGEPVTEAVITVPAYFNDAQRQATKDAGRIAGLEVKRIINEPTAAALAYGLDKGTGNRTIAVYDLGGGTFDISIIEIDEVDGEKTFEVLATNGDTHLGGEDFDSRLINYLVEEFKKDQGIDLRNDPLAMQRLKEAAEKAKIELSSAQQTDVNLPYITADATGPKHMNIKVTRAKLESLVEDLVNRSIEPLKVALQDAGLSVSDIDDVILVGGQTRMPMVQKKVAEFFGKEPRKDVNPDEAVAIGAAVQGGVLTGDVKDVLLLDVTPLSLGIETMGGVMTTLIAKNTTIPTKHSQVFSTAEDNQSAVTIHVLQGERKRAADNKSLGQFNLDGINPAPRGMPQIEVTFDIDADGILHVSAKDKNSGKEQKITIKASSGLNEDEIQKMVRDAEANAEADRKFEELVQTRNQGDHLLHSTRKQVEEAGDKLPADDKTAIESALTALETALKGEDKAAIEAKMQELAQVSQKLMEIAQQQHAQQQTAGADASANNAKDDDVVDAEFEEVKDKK

B1: Metalnikowin I (P1), Palomena prasina, Cf-VDKPDYRPRPRPPNM-NH2 (peptide)
peptide: Cf-VDKPDYRPRPRPPNM-NH2
notes: metalnikowin I of Palomena prasina; source: synthetic peptide (PANATecs, Tübingen), purified to >95%
With B1 the Kd was over 5 µM.

B2: Metalnikowin IIA (P2), Palomena prasina, Cf-VDKPDYRPRPWPRPN-NH2 (peptide)
peptide: Cf-VDKPDYRPRPWPRPN-NH2
notes: metalnikowin IIA of Palomena prasina; source: synthetic peptide (PANATecs, Tübingen), purified to >95%
B2 showed a Kd of over 5 µM.

B3: Abaecin (P3), Bombus pascuorum, Cf-[residues removed]-NH2 (peptide)
peptide: Cf-FVPYNPPRPGQSKPFPSFPGHGPFNPKIQWPYPLPNPGH-NH2
notes: abaecin of Bombus pascuorum, 39 residues; also called B. pascuorum abaecin; source: synthetic peptide (PANATecs, Tübingen), purified to >95%
B3 was tested, and the Kd was 0.19 ± 0.03 µM.

B4: Metchnikowin-1 (P4), Drosophila melanogaster, Cf-[residues removed]-NH2 (peptide)
peptide: Cf-HRHQGPIFDTRPSPFNPNQPRPGPIY-NH2
notes: metchnikowin 1 of Drosophila melanogaster; source: synthetic peptide (PANATecs, Tübingen), purified to >95%
B4 showed a Kd of over 5 µM.

B5: Metchnikowin-2 (P5), Drosophila melanogaster, Cf-[residues removed]-NH2 (peptide)
peptide: Cf-HRRQGPIFDTRPSPFNPNQPRPGPIY-NH2
notes: metchnikowin 2 of Drosophila melanogaster; source: synthetic peptide (PANATecs, Tübingen), purified to >95%
In the case of B5, the Kd is reported as over 5 µM.
